Results as given in article PMC10578477, “Biochemical and genetic dissection of the RNA-binding surface of the FinO domain of Escherichia coli ProQ”.
Substitutions are numbered along the chain they refer to.

T1: ProQ NTD D41A D41A (Escherichia coli) (UniProt P45577)
T1 sequence: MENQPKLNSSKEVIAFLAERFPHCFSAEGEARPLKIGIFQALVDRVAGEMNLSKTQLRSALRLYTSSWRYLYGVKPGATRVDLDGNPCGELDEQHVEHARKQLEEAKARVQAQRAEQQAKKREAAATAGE

T2: ProQ NTD K54A K54A (Escherichia coli) (UniProt P45577)
T2 sequence: T1 sequence with A41D, K54A

T3: ProQ NTD R58A R58A (Escherichia coli) (UniProt P45577)
T3 sequence: T1 sequence with A41D, R58A

T4: ProQ NTD R69A R69A (Escherichia coli) (UniProt P45577)
T4 sequence: T1 sequence with A41D, R69A

T5: ProQ NTD T65A T65A (Escherichia coli) (UniProt P45577)
T5 sequence: T1 sequence with A41D, T65A

T6: ProQ NTD R62A R62A (Escherichia coli) (UniProt P45577)
T6 sequence: T1 sequence with A41D, R62A

T7: ProQ NTD K35A K35A (Escherichia coli) (UniProt P45577)
T7 sequence: T1 sequence with K35A, A41D

T8: ProQ NTD R32A R32A (Escherichia coli) (UniProt P45577)
T8 sequence: T1 sequence with R32A, A41D

T9: ProQ NTD Y70F Y70F (Escherichia coli) (UniProt P45577)
T9 sequence: T1 sequence with A41D, Y70F

T10: ProQ NTD K35A (Escherichia coli, UniProt P45577 1-130, K35A)
T10 sequence: T1 sequence with K35A, A41D

T11: ProQ NTD R69A (Escherichia coli, UniProt P45577 1-130, R69A)
T11 sequence: T1 sequence with A41D, R69A

T12: ProQ NTD R80K (Escherichia coli, UniProt P45577 1-130, R80K)
T12 sequence: T1 sequence with A41D, R80K

T13: ProQ NTD R80A (Escherichia coli, UniProt P45577 1-130, R80A)
T13 sequence: T1 sequence with A41D, R80A

T14: ProQ NTD D41A (Escherichia coli, UniProt P45577 1-130, D41A)
T14 sequence: T1 sequence

T15: ProQ NTD T65A (Escherichia coli, UniProt P45577 1-130, T65A)
T15 sequence: T1 sequence with A41D, T65A

T16: ProQ NTD R62A (Escherichia coli, UniProt P45577 1-130, R62A)
T16 sequence: T1 sequence with A41D, R62A

B1: cspE-3' (structured_RNA)
RNA: GUAAGAUACGUCAGCAAGAAUUCAAAACCCGCUUAAUCAGCGGGUUUUUUUU

Legend:
[1] = target: T1, ProQ NTD D41A D41A (Escherichia coli); assay: EMSA; settings: EMSA: 25 mM Tris pH 7.5, 150 mM NaCl, 5% glycerol, 1 mM MgCl2, 1 nM 32P-RNA, 30 min RT; microplates pretreated with 0.0025% BSA; 6% gel in 0.5x TBE at 4 C
[2] = target: T2, ProQ NTD K54A K54A (Escherichia coli); assay: EMSA; settings: EMSA: 25 mM Tris pH 7.5, 150 mM NaCl, 5% glycerol, 1 mM MgCl2, 1 nM 32P-RNA, 30 min RT; microplates pretreated with 0.0025% BSA; 6% gel in 0.5x TBE at 4 C
[3] = target: T3, ProQ NTD R58A R58A (Escherichia coli); assay: EMSA; settings: EMSA: 25 mM Tris pH 7.5, 150 mM NaCl, 5% glycerol, 1 mM MgCl2, 1 nM 32P-RNA, 30 min RT; microplates pretreated with 0.0025% BSA; 6% gel in 0.5x TBE at 4 C
[4] = target: T4, ProQ NTD R69A R69A (Escherichia coli); assay: EMSA; settings: EMSA: 25 mM Tris pH 7.5, 150 mM NaCl, 5% glycerol, 1 mM MgCl2, 1 nM 32P-RNA, 30 min RT; microplates pretreated with 0.0025% BSA; 6% gel in 0.5x TBE at 4 C
[5] = target: T5, ProQ NTD T65A T65A (Escherichia coli); assay: EMSA; settings: EMSA: 25 mM Tris pH 7.5, 150 mM NaCl, 5% glycerol, 1 mM MgCl2, 1 nM 32P-RNA, 30 min RT; microplates pretreated with 0.0025% BSA; 6% gel in 0.5x TBE at 4 C
[6] = target: T6, ProQ NTD R62A R62A (Escherichia coli); assay: EMSA; settings: EMSA: 25 mM Tris pH 7.5, 150 mM NaCl, 5% glycerol, 1 mM MgCl2, 1 nM 32P-RNA, 30 min RT; microplates pretreated with 0.0025% BSA; 6% gel in 0.5x TBE at 4 C
[7] = target: T7, ProQ NTD K35A K35A (Escherichia coli); assay: EMSA; settings: EMSA: 25 mM Tris pH 7.5, 150 mM NaCl, 5% glycerol, 1 mM MgCl2, 1 nM 32P-RNA, 30 min RT; microplates pretreated with 0.0025% BSA; 6% gel in 0.5x TBE at 4 C
[8] = target: T8, ProQ NTD R32A R32A (Escherichia coli); assay: EMSA; settings: EMSA: 25 mM Tris pH 7.5, 150 mM NaCl, 5% glycerol, 1 mM MgCl2, 1 nM 32P-RNA, 30 min RT; microplates pretreated with 0.0025% BSA; 6% gel in 0.5x TBE at 4 C
[9] = target: T9, ProQ NTD Y70F Y70F (Escherichia coli); assay: EMSA; settings: EMSA: 25 mM Tris pH 7.5, 150 mM NaCl, 5% glycerol, 1 mM MgCl2, 1 nM 32P-RNA, 30 min RT; microplates pretreated with 0.0025% BSA; 6% gel in 0.5x TBE at 4 C
ProQ NTD K35A [10] = target: T10, ProQ NTD K35A; assay: EMSA; EMSA: 25 mM Tris pH 7.5, 150 mM NaCl, 5% glycerol, 1 mM MgCl2, 1 nM 32P-RNA, 30 min RT; microplates pretreated with 0.0025% BSA; 6% gel in 0.5x TBE at 4 C; settings: protein: recombinant, tags: His6-TEV removed, N-terminal Ser remains, label: 5'-32P
ProQ NTD R69A [11] = target: T11, ProQ NTD R69A; assay: EMSA; affinity not decreased vs R69A with cspE-3'; EMSA: 25 mM Tris pH 7.5, 150 mM NaCl, 5% glycerol, 1 mM MgCl2, 1 nM 32P-RNA, 30 min RT; microplates pretreated with 0.0025% BSA; 6% gel in 0.5x TBE at 4 C; settings: protein: recombinant; tags: His6-TEV removed, N-terminal Ser remains; label: 5'-32P; hairpin with 5' and 3' single-stranded regions
ProQ NTD R80K = target: T12, ProQ NTD R80K; assay: EMSA; EMSA: 25 mM Tris pH 7.5, 150 mM NaCl, 5% glycerol, 1 mM MgCl2, 1 nM 32P-RNA, 30 min RT; microplates pretreated with 0.0025% BSA; 6% gel in 0.5x TBE at 4 C; settings: protein: recombinant; tags: His6-TEV removed, N-terminal Ser remains; label: 5'-32P; terminator hairpin, 8 U 3' tail
ProQ NTD R80A = target: T13, ProQ NTD R80A; assay: as above; settings: protein: recombinant; tags: His6-TEV removed, N-terminal Ser remains; label: 5'-32P; terminator hairpin, 8 U 3' tail
ProQ NTD D41A = target: T14, ProQ NTD D41A; assay: as above; settings: protein: recombinant; tags: His6-TEV removed, N-terminal Ser remains; label: 5'-32P; terminator hairpin, 8 U 3' tail
ProQ NTD T65A = target: T15, ProQ NTD T65A; assay: as above; settings: protein: recombinant; tags: His6-TEV removed, N-terminal Ser remains; label: 5'-32P; terminator hairpin, 8 U 3' tail
ProQ NTD R69A [12] = target: T11, ProQ NTD R69A; assay: EMSA; max fraction bound 88%; EMSA: 25 mM Tris pH 7.5, 150 mM NaCl, 5% glycerol, 1 mM MgCl2, 1 nM 32P-RNA, 30 min RT; microplates pretreated with 0.0025% BSA; 6% gel in 0.5x TBE at 4 C; settings: protein: recombinant; tags: His6-TEV removed, N-terminal Ser remains; label: 5'-32P; terminator hairpin, 8 U 3' tail
ProQ NTD K35A [13] = target: T10, ProQ NTD K35A; assay: EMSA; max fraction bound similar to WT; EMSA: 25 mM Tris pH 7.5, 150 mM NaCl, 5% glycerol, 1 mM MgCl2, 1 nM 32P-RNA, 30 min RT; microplates pretreated with 0.0025% BSA; 6% gel in 0.5x TBE at 4 C; settings: protein: recombinant; tags: His6-TEV removed, N-terminal Ser remains; label: 5'-32P; terminator hairpin, 8 U 3' tail
ProQ NTD R62A = target: T16, ProQ NTD R62A; assay: EMSA; max fraction bound just above 40%; EMSA: 25 mM Tris pH 7.5, 150 mM NaCl, 5% glycerol, 1 mM MgCl2, 1 nM 32P-RNA, 30 min RT; microplates pretreated with 0.0025% BSA; 6% gel in 0.5x TBE at 4 C; settings: protein: recombinant; tags: His6-TEV removed, N-terminal Ser remains; label: 5'-32P; terminator hairpin, 8 U 3' tail
ProQ NTD K35A [14] = target: T10, ProQ NTD K35A; assay: EMSA; EMSA: 25 mM Tris pH 7.5, 150 mM NaCl, 5% glycerol, 1 mM MgCl2, 1 nM 32P-RNA, 30 min RT; microplates pretreated with 0.0025% BSA; 6% gel in 0.5x TBE at 4 C; settings: protein: recombinant; tags: His6-TEV removed, N-terminal Ser remains; label: 5'-32P; hairpin, no 5' single strand
ProQ NTD R69A [15] = target: T11, ProQ NTD R69A; assay: as above; settings: protein: recombinant; tags: His6-TEV removed, N-terminal Ser remains; label: 5'-32P; hairpin, no 5' single strand
ProQ NTD R69A [16] = target: T11, ProQ NTD R69A; assay: as above; settings: protein: recombinant; tags: His6-TEV removed, N-terminal Ser remains; label: 5'-32P; hairpin, 6 U tail (2 predicted single-stranded)

Molecule | binding signal (fold weaker Kd than WT) [1] | binding signal [2] | Kd [3] | binding signal (fold weaker Kd than WT) [5] | binding signal [6] | other results
RybB | 2 | < 20 % max bound | > 1000 nM | 1 |  | binding signal [4]: < 40 % max bound
SibA | > 5 |  | > 1000 nM | 2 | 25 % max bound | 
SibB | > 5 |  | > 1000 nM | 4 |  | Kd [7]: > 1000 nM; binding signal (fold weaker Kd than WT) [8]: 3
SibB-5U |  |  |  |  |  | binding signal [4]: > 30 % max bound
cspE81-3' | 2 | 30 % max bound | > 1000 nM | 2 | < 20 % max bound | binding signal [9]: < 20 % max bound
gapA-3' | 1 | < 20 % max bound | > 1000 nM | 1 | < 20 % max bound | binding signal (fold weaker Kd than WT) [8]: 1
malM-3' | 3 | 30 % max bound | > 1000 nM | 2 | 25 % max bound | binding signal [7]: 70 % max bound; binding signal (fold weaker Kd than WT) [8]: 1; binding signal [9]: < 20 % max bound
GGAAUUCGGAAGGCGCUUAAUCAGCGCCUUUUUUUU (structured_RNA) [cspE-mini] |  |  |  |  |  | binding signal (ProQ NTD K35A [10]; hairpin with 5' and 3' single-stranded regions): ~2 fold weaker Kd than K35A with cspE-3'; binding result (ProQ NTD R69A [11]): binds
B1 |  |  |  |  |  | binding result (ProQ NTD R80K): no binding; binding result (ProQ NTD R80A): no binding; binding signal (ProQ NTD D41A): ~3 fold weaker Kd than WT; binding signal (ProQ NTD T65A): ~4 fold weaker Kd than WT; Kd (ProQ NTD R69A [12]): 20 nM; binding result (ProQ NTD K35A [13]): binds; binding signal (ProQ NTD R62A): ~4 fold weaker Kd than WT
GGAAGGCGCUUAAUCAGCGCCUUUUUUUU (structured_RNA) [cspE-mini-5'-blunt] |  |  |  |  |  | binding result (ProQ NTD K35A [14]): no binding; binding result (ProQ NTD R69A [15]): no binding
GGAAUUCGGAAGGCGCUUAAUCAGCGCCUUUUUU (structured_RNA) [cspE-mini-3'-6U] |  |  |  |  |  | binding signal (ProQ NTD K35A [10]; hairpin, 6 U tail (2 predicted single-stranded)): ~1.4 fold weaker Kd than K35A with cspE-mini; binding signal (ProQ NTD R69A [16]): ~2.4 fold weaker Kd than R69A with cspE-mini
